The values that follow come from patent US20100105876A1, “Method for the oligomerisation of peptides” (priority 1996, published 2010).

For orientation: IC50 means the point on the concentration scale where inhibition reaches its midpoint.

One test has as its system BCL1 IgM idiotype. In words: RIA competition on plastic: inhibition of 125I labeled B1 IgG binding to coated BCL1 IgM. The arrangement: species or system mouse. How it is done: RIA competition on plastic. Polyvinil 96-well plates are coated with BCL1 IgM at 3 μg/ml in PBS for 16 h at 4° C. and blocked with 2% MPBS for 1 h at 37° C. Different amounts of peptides are incubated with 10 nCi of ^125I labeled B1 IgG for 1 h at 37° C. The wells are washed with PBS containing 0.1% of Tween-20 and the amounts of radioactivity retained is measured with an automated multichannel Cobra II γ-counter.
Synthetic peptides corresponding to the selected sequences are prepared as outlined in Table 1. Cysteins containing peptide S is completely oxidized on air loosing two hydrogen atoms, as shown by Mass Spectroscopy, which is consistent with the cyclization of the peptide. All synthetic peptides are tested for binding inhibition of ^125I labeled B1 IgG to BCL1 IgM coated on plastic. The D and the S peptides inhibit binding with an IC50 of about 60 μM and 200 μM, respectively. No inhibition is seen with peptide F up to 2 mM, which is used, thereafter, as a negative control.
However, since spatial arrangement of target molecule on the surface may influence multivalent binding, the equilibrium binding parameters of Pab-S are determined directly on live BCL1 cells, which represent a more relevant biological surface. Purified Pab-S is labeled with ^125I and is shown to bind to BCL1 idiotype on the cell surface. […]

The target of test [1] is Pentabody Pab-S (peptide S - camel Ig hinge - modified COMP pentamerization domain - 6xHis, homopentamer) (UniProt P35444). Description: soluble BCL1 IgM competing the binding of Pab-S to BCL1 cells.
Chain of UniProt P35444 (P35444 other isoform, or with tags, fused parts or gaps): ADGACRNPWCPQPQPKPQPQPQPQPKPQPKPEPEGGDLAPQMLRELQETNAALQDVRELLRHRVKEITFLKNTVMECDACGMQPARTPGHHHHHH
Test [2] concerns the target BCL1 soluble IgM (idiotype-bearing IgM purified from the serum of a mouse carrying the BCL1 B-cell lymphoma) (mouse). Description: RIA competition: peptide against 125I B1 IgG on BCL1 IgM coated on plastic.

Bridge positions count the residues as written; N and C are the ends. Ends that are not written are not given here.

With “peptide F: Synthetic peptide, first ten amino acids of the sequence selected from the Fisch library (SEQ ID 3); negative control (TAAGLCEFDQ; Synthetic peptide ligand specific for mouse BCL1 idiotype selected from peptide libraries dispalyed on filamentous bacteriophage displaying random hexapeptides or decapeptides)”, the “inhibition of 125I labeled B1 IgG binding to BCL1 IgM coated on plastic” value with BCL1 IgM idiotype (up to 2 mM peptide) is “No inhibition”.
For the molecule “BCL1 soluble IgM (idiotype-bearing IgM purified from the serum of a mouse carrying the BCL1 B-cell lymphoma) (antibody)”, the concentration for 80% displacement in test [1] was determined as 100 nM.
At BCL1 IgM idiotype (synthetic peptides, BCL1 IgM coated on plastic), SVWRWLPYDKYE came in with an IC50 of about 60 µM.
ADGACRNPWC (disulfide 5-10 (inferred)) [synthetic peptide S (selected from the Smith library, oxidized/cyclized)] came in with an IC50 in test [2] of 200 µM.
In test [2], SVWRWLPYDKYE [synthetic peptide D (selected from the Doorbar library)] registered an IC50 of 60 µM.
